Data on one substance can be found in publication PMC3114773.

The experiment deals with β-arrestin2 (β-arr2) (UniProt Q91YI4). The experiment in a line: co-IP, anti-Myc IP, anti-GFP blot. To be noted: reference: wild type; sites S592,S594,T597,S599,S615,S619,S620,S642,S666,S774,S777,S791.

Regarding “Smo (mSmo, mammalian Smoothened) (from UniProt P56726) SA mutant (taken as SA0–5)”, the “binding against the reference” value is given as “weaker”.
